T1: recombinant, phycoerythrin (PE) labeled, BCMA extracellular domain-FC fusion protein (Homo sapiens (Human), UniProt Q02223 1-54, phycoerythrin (PE) label)
T1 construct: The whole entry is named here; only the extracellular domain stood in the assay; also called BCMA-PE; not shown: Fc part of the staining reagent
T1 sequence: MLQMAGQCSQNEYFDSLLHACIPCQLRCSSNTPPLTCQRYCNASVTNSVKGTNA


molecular target: T1, recombinant, phycoerythrin (PE) …; assay: flow cytometry of transduced PBMCs stained with BCMA-PE (PE-labeled BCMA extracellular domain-Fc)
Description: 5×10⁵ human PBMCs were plated in each well of a 24-well plate. Cells were transduced with recombinant lentiviruses LV 1 to LV 19 at a MOI 2 based on the Jurkat functional titer, or a 0.5 mL volumetric transduction if MOI 2 was not achievable. Seven days post-transduction, PBMCs were harvested and stained with BCMA-PE and analyzed by flow cytometry to assess the percentage of anti-BCMA CAR expressing cells. FIG. 2B.

Row | Binder | binding result
1 | anti-BCMA CAR of recombinant lentivirus LV 9 (SEQ ID NO: 273) (receptor, also called LV 9.1 to LV 9.9) EVQLLESGGGLVQPGGSLRLSCAASGFTFGSEAMSWVRQAPGKERELVSAISGSGEVTYYADSVKGRFTISRDNSKNTLYLQMNSLRAEDTAVYYCQRLVEAKRHWGQGTQVTVSSTTTPAPRPPTPAPTIASQPLSLRPEACRPAAGGAVHTRGLDFACDIYIWAPLAGTCGVLLLSLVITLYCKRGRKKLLYIFKQPFMRPVQTTQEEDGCSCRFPEEEEGGCELRVKFSRSADAPAYQQGQNQLYNELNLGRREEYDVLDKRRGRDPEMGGKPRRKNPQEGLYNELQKDKMAEAYSEIGMKGERRRGKGHDGLYQGLSTATKDTYDALHMQALPPR | binds
2 | anti-BCMA CAR of recombinant lentivirus LV 8 (SEQ ID NO: 270) (receptor, also called LV 8.1 to LV 8.9) DIQMTQSPSSLSASVGDRVTITCQASQDIANYLNWYQQKPGKAPKLLIYDASNLETGVPSRFSGSGSGTDFTFTISSLQPEDIATYYCQQHFNLPLTFGGGTKVEIKGGGGSGGGGSGGGGSGGGGSQITLKESGPTLVKPTQTLTLTCTFSGFSLSTSGVGVGWIRQPPGKALEWLALIYWNDEKRYSPSLKSRLTITKDTSKNQVVLTMTNMDPVDTAVYYCAREGSHDYKSSNWFDPWGQGTLVTVSSTTTPAPRPPTPAPTIASQPLSLRPEACRPAAGGAVHTRGLDFACDIYIWAPLAGTCGVLLLSLVITLYCKRGRKKLLYIFKQPFMRPVQTTQEEDGCSCRFPEEEEGGCELRVKFSRSADAPAYQQGQNQLYNELNLGRREEYDVLDKRRGRDPEMGGKPRRKNPQEGLYNELQKDKMAEAYSEIGMKGERRRGKGHDGLYQGLSTATKDTYDALHMQALPPR | binds
3 | anti-BCMA CAR of recombinant lentivirus LV 15 (SEQ ID NO: 279) (receptor) EVQLLESGGGLVQPGGSLRLSCAASGFTFDSYTMSWYRQAPGKERELVSAISGHGDSTYYADSVKGRFTISRDNSKNTLYLQMNSLRAEDTAVYYCTRISITTEWLAGDYWGQGTQVTVSSTTTPAPRPPTPAPTIASQPLSLRPEACRPAAGGAVHTRGLDFACDIYIWAPLAGTCGVLLLSLVITLYCKRGRKKLLYIFKQPFMRPVQTTQEEDGCSCRFPEEEEGGCELRVKFSRSADAPAYQQGQNQLYNELNLGRREEYDVLDKRRGRDPEMGGKPRRKNPQEGLYNELQKDKMAEAYSEIGMKGERRRGKGHDGLYQGLSTATKDTYDALHMQALPPR | binds
4 | anti-BCMA CAR of recombinant lentivirus LV 1 (SEQ ID NO: 256) (receptor) EIVLTQSPATLSLSPGERATLSCRASQSVSSYLAWYQQKPGQAPRLLIYDASNRATGIPARFSGSGSGTDFTLTISSLEPEDFAVYYCQQRVVYPITFGGGTKVEIKGGGGSGGGGSGGGGSGGGGSQITLKESGPTLVKPTQTLTLTCTFSGFSLSTSGVGVGWIRQPPGKALEWLALIYWNDEKRYSPSLKSRLTITKDTSKNQVVLTMTNMDPVDTAVYYCARDEYGGFDIWGQGTMVTVSSTTTPAPRPPTPAPTIASQPLSLRPEACRPAAGGAVHTRGLDFACDIYIWAPLAGTCGVLLLSLVITLYCKRGRKKLLYIFKQPFMRPVQTTQEEDGCSCRFPEEEEGGCELRVKFSRSADAPAYQQGQNQLYNELNLGRREEYDVLDKRRGRDPEMGGKPRRKNPQEGLYNELQKDKMAEAYSEIGMKGERRRGKGHDGLYQGLSTATKDTYDALHMQALPPR | binds
5 | anti-BCMA CAR of recombinant lentivirus LV 2 (SEQ ID NO: 258) (receptor) EIVLTQSPATLSLSPGERATLSCRASQSVSSYLAWYQQKPGQAPRLLIYDASNRATGIPARFSGSGSGTDFTLTISSLEPEDFAVYYCQQRFDYPITFGGGTKVEIKGGGGSGGGGSGGGGSGGGGSQITLKESGPTLVKPTQTLTLTCTFSGFSLSTSGVGVGWIRQPPGKALEWLALIYWNDDKRYSPSLKSRLTITKDTSKNQVVLTMTNMDPVDTAVYYCARDEYGGFDIWGQGTMVTVSSTTTPAPRPPTPAPTIASQPLSLRPEACRPAAGGAVHTRGLDFACDIYIWAPLAGTCGVLLLSLVITLYCKRGRKKLLYIFKQPFMRPVQTTQEEDGCSCRFPEEEEGGCELRVKFSRSADAPAYQQGQNQLYNELNLGRREEYDVLDKRRGRDPEMGGKPRRKNPQEGLYNELQKDKMAEAYSEIGMKGERRRGKGHDGLYQGLSTATKDTYDALHMQALPPR | binds
6 | anti-BCMA CAR of recombinant lentivirus LV 3 (SEQ ID NO: 259) (receptor, also called LV 3.1 to LV 3.9) QVQLVESGGGVVQPGRSLRLSCAASGFTFSSYGMHWVRQAPGKGLEWVAVISYEGSNKYYADSVKGRFTISRDNSKNTLYLQMNSLRAEDTAVYYCARELGDGMDVWGQGTTVTVSSGGGGSGGGGSGGGGSGGGGSEIVLTQSPATLSLSPGERATLSCRASQSVSSYLAWFQQKPGQAPRLLIYDASNRATGIPARFSGSGSGTDFTLTISSLEPEDFAVYYCQQRVDLWTFGGGTKVEIKTTTPAPRPPTPAPTIASQPLSLRPEACRPAAGGAVHTRGLDFACDIYIWAPLAGTCGVLLLSLVITLYCKRGRKKLLYIFKQPFMRPVQTTQEEDGCSCRFPEEEEGGCELRVKFSRSADAPAYQQGQNQLYNELNLGRREEYDVLDKRRGRDPEMGGKPRRKNPQEGLYNELQKDKMAEAYSEIGMKGERRRGKGHDGLYQGLSTATKDTYDALHMQALPPR | binds
7 | anti-BCMA CAR of recombinant lentivirus LV 10 (SEQ ID NO: 274) (receptor) EVQLLESGGGLVQPGGSLRLSCAASGFTFESEAMSWYRQAPGKERELVSVITSEGSTYYADSVKGRFTISRDNSKNTLYLQMNSLRAEDTAVYYCAHIEWETRLNWGQGTQVTVSSTTTPAPRPPTPAPTIASQPLSLRPEACRPAAGGAVHTRGLDFACDIYIWAPLAGTCGVLLLSLVITLYCKRGRKKLLYIFKQPFMRPVQTTQEEDGCSCRFPEEEEGGCELRVKFSRSADAPAYQQGQNQLYNELNLGRREEYDVLDKRRGRDPEMGGKPRRKNPQEGLYNELQKDKMAEAYSEIGMKGERRRGKGHDGLYQGLSTATKDTYDALHMQALPPR | binds
8 | anti-BCMA CAR of recombinant lentivirus LV 18 (SEQ ID NO: 283) (receptor) EVQLLESGGGLVQPGGSLRLSCAASGFTFSSEGMSWVRQAPGKERELVSAISGSGDHTYYADSVRGRFTISRDNSKNTLYLQMNSLRAEDTAVYYCNALEGGPTTAIQPGGPDYWGQGTQVTVSSTTTPAPRPPTPAPTIASQPLSLRPEACRPAAGGAVHTRGLDFACDIYIWAPLAGTCGVLLLSLVITLYCKRGRKKLLYIFKQPFMRPVQTTQEEDGCSCRFPEEEEGGCELRVKFSRSADAPAYQQGQNQLYNELNLGRREEYDVLDKRRGRDPEMGGKPRRKNPQEGLYNELQKDKMAEAYSEIGMKGERRRGKGHDGLYQGLSTATKDTYDALHMQALPPR | binds
9 | anti-BCMA CAR of recombinant lentivirus LV 7 (SEQ ID NO: 268) (receptor) DIQMTQSPSSLSASVGDRVTITCRASQSISSYLNWYQQKPGKAPKLLIYAASSLQSGVPSRFSGSGSGTDFTLTISSLQPEDFATYYCQQAHSSPITFGGGTKVEIKGGGGSGGGGSGGGGSGGGGSEVQLLESGGGLVQPGGSLRLSCAASGFTFSNYAMSWVRQAPGKGLEWVSAISGSGGSTYYADSVKGRFTISRDNSKNTLYLQMNSLRAEDTAVYYCARPGDGYYEGVYFDYWGQGTLVTVSSTTTPAPRPPTPAPTIASQPLSLRPEACRPAAGGAVHTRGLDFACDIYIWAPLAGTCGVLLLSLVITLYCKRGRKKLLYIFKQPFMRPVQTTQEEDGCSCRFPEEEEGGCELRVKFSRSADAPAYQQGQNQLYNELNLGRREEYDVLDKRRGRDPEMGGKPRRKNPQEGLYNELQKDKMAEAYSEIGMKGERRRGKGHDGLYQGLSTATKDTYDALHMQALPPR | binds
10 | anti-BCMA CAR of recombinant lentivirus LV 12 (SEQ ID NO: 276) (receptor) EVQLLESGGGLVQPGGSLRLSCAASGFTFEDYAMSWFRQAPGKEREGVSAISGKGGSTYYADSVKGRFTISRDNSKNTLYLQMNSLRAEDTAVYYCAVLDEEAGAEGGYWGQGTQVTVSSTTTPAPRPPTPAPTIASQPLSLRPEACRPAAGGAVHTRGLDFACDIYIWAPLAGTCGVLLLSLVITLYCKRGRKKLLYIFKQPFMRPVQTTQEEDGCSCRFPEEEEGGCELRVKFSRSADAPAYQQGQNQLYNELNLGRREEYDVLDKRRGRDPEMGGKPRRKNPQEGLYNELQKDKMAEAYSEIGMKGERRRGKGHDGLYQGLSTATKDTYDALHMQALPPR | binds
11 | anti-BCMA CAR of recombinant lentivirus LV 13 (SEQ ID NO: 277) (receptor, also called LV 13.1 to LV 13.9) EVQLLESGGGLVQPGGSLRLSCAASGFTFDRYAMSWFRQAPGKEREGVSAISTSGDSTYYADSVKGRFTISRDNSKNTLYLQMNSLRAEDTAVYYCAVLDEEAGAEGGYWGQGTQVTVSSTTTPAPRPPTPAPTIASQPLSLRPEACRPAAGGAVHTRGLDFACDIYIWAPLAGTCGVLLLSLVITLYCKRGRKKLLYIFKQPFMRPVQTTQEEDGCSCRFPEEEEGGCELRVKFSRSADAPAYQQGQNQLYNELNLGRREEYDVLDKRRGRDPEMGGKPRRKNPQEGLYNELQKDKMAEAYSEIGMKGERRRGKGHDGLYQGLSTATKDTYDALHMQALPPR | binds
12 | anti-BCMA CAR of recombinant lentivirus LV 11 (SEQ ID NO: 275) (receptor) EVQLLESGGGLVQPGGSLRLSCAASGFTFDEYTMHWFRQAPGKEREFVSAISGGGSETYYADSVKGRFTISRDNSKNTLYLQMNSLRAEDTAVYYCAAGGEEAGVGYWGQGTQVTVSSTTTPAPRPPTPAPTIASQPLSLRPEACRPAAGGAVHTRGLDFACDIYIWAPLAGTCGVLLLSLVITLYCKRGRKKLLYIFKQPFMRPVQTTQEEDGCSCRFPEEEEGGCELRVKFSRSADAPAYQQGQNQLYNELNLGRREEYDVLDKRRGRDPEMGGKPRRKNPQEGLYNELQKDKMAEAYSEIGMKGERRRGKGHDGLYQGLSTATKDTYDALHMQALPPR | binds
13 | anti-BCMA CAR of recombinant lentivirus LV 5 (SEQ ID NO: 263) (receptor, also called LV 5.1 to LV 5.9) QVQLVESGGGLVKPGGSLRLSCAASGFTFSDYYMSWIRQAPGKGLEWVSYISSSGSTIYYADSVKGRFTISRDNAKNSLYLQMNSLRAEDTAVYYCARDQGNYGVDVWGQGTTVTVSSGGGGSGGGGSGGGGSGGGGSDIQMTQSPSTLSASVGDRVTITCRASQSISSWLAWYQQKPGKAPKLLIYEASSLESGVPSRFSGSGSGTEFTLTISSLQPDDFATYYCQQSDSHPITFGGGTKVEIKTTTPAPRPPTPAPTIASQPLSLRPEACRPAAGGAVHTRGLDFACDIYIWAPLAGTCGVLLLSLVITLYCKRGRKKLLYIFKQPFMRPVQTTQEEDGCSCRFPEEEEGGCELRVKFSRSADAPAYQQGQNQLYNELNLGRREEYDVLDKRRGRDPEMGGKPRRKNPQEGLYNELQKDKMAEAYSEIGMKGERRRGKGHDGLYQGLSTATKDTYDALHMQALPPR | binds
